Experiment [1] deals with T1, recombinant Fc-KAAG1 fusion protein (full-length KAAG1) (human, UniProt Q9UBP8 1-84, biotinylated with NHS-biotin (sites not given)).
T1 construct: also called recombinant human KAAG1; not shown: human Fc domain encoded by expression plasmid pYD5; vector-encoded residues between the Fc and the BamHI cloning site of pYD5
T1 sequence: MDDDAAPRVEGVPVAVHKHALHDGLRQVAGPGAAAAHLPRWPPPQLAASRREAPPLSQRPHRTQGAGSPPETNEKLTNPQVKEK
As to the kind of experiment: ELISA. The method, then: (§1) The 96-well master plate of monoclonal preparations contained different concentrations of purified anti-KAAG1 Fabs in each well. A second stock master plate was prepared by diluting the Fabs to a final concentration of 10 μg/ml from which all subsequent dilutions were performed for ELISA measurements. To carry out the binding of Fc-KAAG1 to the monoclonal preparations, the Fc-KAAG1 was biotinylated with NHS-biotin (Pierce, Rockford, Ill.) and 10 ng/well was coated in a streptavidin 96-well plate. One nanogram of each Fab monoclonal preparation was added to each well and incubated at room temperature for 30 minutes. Bound antibody was detected with HRP-conjugated mouse anti-kappa light chain antibody in the presence of TMB liquid substrate (Sigma-Aldrich Canada Ltd., Oakville, ON) and readings were conducted at 450 nm in microtiter plate reader.

In experiment [2] the target is T1, recombinant Fc-KAAG1 fusion protein …. Nature of the experiment: ELISA. The source holds these as a separate data set.
Experiment [3] concerns the target T2, Fc-fused truncated mutant of KAAG1 spanning amino acids 1-35 (human).
T2 construct: also called truncated mutant of KAAG1 1-35; first 35 amino acids of KAAG1; not shown: human Fc domain encoded by expression plasmid pYD5; vector-encoded residues between the Fc and the BamHI cloning site of pYD5
T2 chain: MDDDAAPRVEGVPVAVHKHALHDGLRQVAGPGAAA
Nature of the experiment: ELISA.

Experiment [4] deals with T1, recombinant Fc-KAAG1 fusion protein …. Nature of the experiment: ELISA on Fc-KAAG1. The method, then:
as §1
Expression of human IgG1s in 293E cells—The expression vectors prepared above that encoded the light and heavy chain immunoglobulins were expressed in 293E cells using the transient transfection system (Durocher et al., 2002). The methods used for co-transfecting the light and heavy chain expression vectors were described in Example 3. […] The ability of the chimeric anti-KAAG1 monoclonal antibodies to bind to recombinant Fc-KAAG1 was measured in the ELISA and compared with the original mouse Fabs. The method was described in Example 3. […]
(In general: In an ELISA, binding on a coated surface is turned into a signal by an enzyme label.)

The next experiment has as its target T3, biotinylated Fc domain (UniProt P01857-1 104-330 = IgG part, limits assumed, biotinylated).
T3 construct: domain: Fc domain; Control antigen of the Fab ELISA; also called Fc domain (control)
As to the kind of experiment: ELISA, biotinylated Fc domain on streptavidin plate, Fab detected with HRP anti-kappa. The method, then:
as §1

The target of experiment [5] is T1, recombinant Fc-KAAG1 fusion protein …. Nature of the experiment: ELISA on recombinant Fc-KAAG1. How it is done: as §1
Since an antibody harboring effector functions was required, the h3D3 was assembled as a human IgG₁. ELISA-based assays were performed to directly compare the ability of the h3D3 […]. The methods used to perform these tests were as described in Example 3 using recombinant Fc-KAAG1.

The target of experiment [6] is T4, KAAG1 (Kidney associated antigen 1), endogenous, on cancer cells and in tumour tissue (human, UniProt Q9UBP8 1-84).
T4 construct: also called KAAG1 antigen
T4 sequence: T1 sequence
As to the kind of experiment: cell-based ELISA on fixed, non-permeabilised OV-90 cells. How it is done:
(§2) KAAG1 is expressed on the surface of ovarian cancer cells. […] Following extensive washing of the cells, bound antibody was detected with HRP-conjugated anti-human IgG as a secondary antibody in a modified cell-based ELISA (see FIG. 16A). […] Additionally, the 3D3 antibody produced the strongest signal implying that the epitope targeted by this antibody was the most accessible in this assay. […] A second approach used was flow cytometry. In this case, a mouse 3D3 anti-KAAG1 antibody was incubated with SKOV-3 ovarian cancer cells at saturating conditions and following extensive washing, the bound 3D3 anti-KAAG1 antibody was detected with anti-mouse IgG conjugated to FITC in a flow cytometer.

Experiment [7] deals with T4, KAAG1 (Kidney associated antigen 1), …. As to the kind of experiment: cell-based ELISA on fixed, non-permeabilised TOV-21G cells. The method, then: as §2
Experiment [8] has as its target T5, monomeric recombinant KAAG1 (Homo sapiens (Human), UniProt Q9UBP8 1-84, limits assumed).
T5 construct: Analyte of the Biacore experiment
T5 sequence: T1 sequence
Nature of the experiment: SPR (Biacore), antibody captured by anti-human Fc, 1:1 fit. How it is done: (§3) More precise measurements were conducted using Surface Plasmon Resonance (SPR) in a Biacore instrument. Kinetic analysis was used to compare the affinity of the chimeric 3D3 with the h3D3 as well as with hybrid antibodies encompassing different permutations of the light and heavy chains (see FIG. 18B). Briefly, anti-human Fc was immobilized on the Biacore sensor chip and chimeric or h3D3 was captured on the chip. Different concentrations of monomeric recombinant KAAG1 were injected and the data were globally fitted to a simple 1:1 model to determine the kinetic parameters of the interaction.
Background: Surface plasmon resonance follows binding to a sensor surface in real time, without labels.

Experiment [9] deals with T5, monomeric recombinant KAAG1. As to the kind of experiment: SPR (Biacore): antibody captured on immobilised anti-human Fc, monomeric recombinant KAAG1 injected, global 1:1 fit; average KD; chimeric 3D3 tabulated as 'm3D3' in FIG. 18B. How it is done:
as §3

Experiment [10] has the same target. Nature of the experiment: SPR (Biacore): antibody captured on immobilised anti-human Fc, monomeric recombinant KAAG1 injected, global 1:1 fit; average KD; chimeric light + chimeric heavy chain, 'CC' in FIG. 18B. The method, then:
as §3

Changes are numbered by the printed parent chain. Several values for one entry are separate records, joined by “and”; a condition that tells them apart may be missing. Equal values may be shown once. Read-outs that look alike come from different tables or passages of the source.

B1: G12 (Fab, V domains shown)
VH: EVQLQQSVAELVRPGASVTVSCKASGYIFTDYEIHWVKQTPAHGLEWIGVIDPETGNTAFNQKFKGKATLTADISSSTAYMELSSLTSEDSAVYYCMGYSDYWGQGTTLTVSS
VL: DIVMTQSPKFMSTSVGDRVSITCKASQDVGTAVAWYQQKPGQSPELLIYWTSTRHTGVPDRFSGSGSGTDFTLTISSVQAEDLADYFCQQHYSIPLTFGAGTKLELR
notes: also called Fab of well G12
B1: the OD450 in [1] and in [2] was 1.38 in each case.

B2: A9 (Fab, V domains shown)
VH: QVQVQQPGAELVRPGASVTLSCKASGYIFTDYEVHWVRQRPVHGLEWIGVIDPETGDTAYNQKFKGKATLTADKSSSTAYMELSSLTAEDSAVYYCIGYADYWGQGTTLTVSS
VL: DIVMTQSPSSLAMSLGQKVTMSCKSSQSLLNSNNQLNYLAWYQQKPGQSPKLLVYFASTRKSGVPDRFIGSGSGTDFTLTITSVQAEDLADYFCQQHFNTPLTFGAGTKLELK
notes: also called Fab of well A9
For the molecule B2, the values for the OD450 in [1], in experiment [2] and in [3] were 1.53, 1.53 and 0.1, respectively.

B3: Fab of well E10 (Omniclonal AL0003Z1 plate) (Fab, V domains shown)
VH: EVQLQQSGPELVKPGASVKISCKASGDTFTDYYMNWVKQSHGKSLEWIGDINPNYGGITYNQKFKGKATLTVDTSSSTAYMELRGLTSEDSAVYYCQAYYRNSDYWGQGTTLTVSS
VL: DIVMTQAAPSVPVTPGESVSISCRSSKSLLHSNGNTYLYWFLQRPGQSPQLLIYRMSNLASGVPDRFSGSGSGTAFTLRISRVEAEDVGVYYCMQHLEYPYTFGGGTKLEIK
As for B3, the OD450 in [1] and in [2] was 0.02 each time.

B4: G8 (Fab, V domains shown)
VH: QVQLKQSGAELVRPGASVTLSCKASGYTFTDYEVHWVKQTPVHGLEWIGVIDPATGDTAYNQKFKGKATLTADKSSSTAYMEVSSLTSEDSAVYYCMGYSDYWGQGTTLTVSS
VL: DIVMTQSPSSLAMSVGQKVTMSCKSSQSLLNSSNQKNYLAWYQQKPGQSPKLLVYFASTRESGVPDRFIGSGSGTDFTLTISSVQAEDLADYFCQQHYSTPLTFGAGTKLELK
notes: also called Fab of well G8
Turning to B4, the OD450 in experiment [1] and in experiment [2] was 1.72 in each case.

B5: C3 (Fab, V domains shown)
VH: EVQLQQSVAEVVRPGASVTLSCKASGYTFTDYEIHWVKQTPVHGLEWIGVIDPETGVTAYNQRFRDKATLTTDKSSSTAYMELSSLTSEDSAVYFCMGYSDYWGQGTTLTVSS
VL: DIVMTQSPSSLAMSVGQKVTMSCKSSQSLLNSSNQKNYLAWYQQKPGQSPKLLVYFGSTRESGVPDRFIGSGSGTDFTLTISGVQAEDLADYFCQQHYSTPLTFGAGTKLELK
notes: also called Fab of well C3
For B5, the OD450 in experiment [1] and in experiment [2] was 1.04 throughout.

B6: 3D3 mouse anti-KAAG1 Fab (Fab, V domains shown)
VH: B1 VH with V20L, A42V
VL: DIVMTQSPSSLAVSIGQKVTMNCKSSQSLLNSNFQKNFLAWYQQKPGQSPKLLIYFASTRESSIPDRFIGSGSGTDFTLTISSVQAEDLADYFCQQHYSTPLTFGAGTKLELK
notes: Recombinant mouse Fab prepared from E. coli, from Omniclonal AL0003Z1; also called 3D3 Fab
B6: the OD450 in experiment [1] and in [2] was 1.21 in each case. Besides, the EC50 (read off the curve) (as a rule, the concentration needed to bring the measured effect to its halfway point) in experiment [4] was approximately 0.5 µg/mL. In the experiment with biotinylated Fc domain, the binding result was “no binding”.

B7: 3D3 mouse-human chimeric IgG1 anti-KAAG1 monoclonal antibody (antibody, V domains shown)
VH: B1 VH with V20L, A42V
VL: DIVMTQSPSSLAVSIGQKVTMNCKSSQSLLNSNFQKNFLAWYQQKPGQSPKLLIYFASTRESSIPDRFIGSGSGTDFTLTISSVQAEDLADYFCQQHYSTPLTFGAGTKLELKA
notes: Mouse variable regions on human kappa and human IgG1 constant regions, expressed in 293E cells; also called chimeric 3D3; 3D3 chimeric IgG1
As for B7, the “EC50 (read off the curve)” value in experiment [5] is approximately 0.4 µg/mL; in [6], approximately 0.9 µg/mL; in [7], approximately 0.6 µg/mL. Also, the Ka in [8] is 4.5e+09 M⁻¹ and 2.71e+09 M⁻¹. In addition, the Kd (usually the free concentration of one partner at which half of the binding sites on the other are occupied at equilibrium, for simple one-to-one binding) stood at 0.368 nM in experiment [8], 0.235 nM in [9] and 0.271 nM in experiment [10]. Also, in experiment [8], the koff – broadly, the first-order rate constant of dissociation – was 0.00065 s⁻¹ and 0.00073 s⁻¹. Besides, the kon (in general, the second-order rate constant of association) in [8] was 2.91e+06 M⁻¹ s⁻¹ and 1.98e+06 M⁻¹ s⁻¹.

B8: 3G10 mouse anti-KAAG1 Fab (Fab, V domains shown)
VH: EIQLQQSGPELVKPGASVKISCKASGYTFTDNYMNWVKQSHGKSLEWIGDINPYYGTTTYNQKFKGKATLTVDKSSRTAYMELRGLTSEDSAVYYCARDDWFDYWGQGTLVTVSA
VL: DVLMTQTPRSLSVSLGDQASISCRSSQSLLHSNGNTYLEWYLQKPGQPPKVLIYKVSNRFSGVPDRFSGSGSGTDFTLKISGVEAEDLGVYYCFQGSHVPLTFGAGTKLELK
notes: Recombinant mouse Fab prepared from E. coli; also called 3G10 Fab; well G10
Consider B8, for which the OD450 in experiment [1] and in [2] was 2.78 throughout. Besides, in the experiment with biotinylated Fc domain, the binding result is on record as “no binding”.

B9: Fab of well C2 (Omniclonal AL0003Z1 plate) (Fab, V domains shown)
VH: DVQLQESGPDLVKPSQSLSLTCTVTGFSITSGYGWHWIRQFPGNKLEWMGYISFNGDSNYNPSLKSRISITRDTSKNQFFLQLNSVTSEDTATYYCASSYDGLFAYWGQGPLVTVSA
VL: DIQMTQSPSSMYASLGERVTLTCKASQDIHNYLNWFQQKPGKSPKTLIHRANRLVAGVPSRFSGSGSGQDYSLTISSLEYEDLGIYYCLQYDAFPLTFGAGTKLELK
In the case of B9, the figures for the OD450 in experiment [1], in experiment [2] and in experiment [3] were 0.32, 0.32 and 1.97, respectively. For the same molecule, the binding result in the experiment with biotinylated Fc domain was “no binding”.

B10: Fab of well D1 (Omniclonal AL0003Z1 plate) (Fab, V domains shown)
VH: B9 VH with D1E, N44D, S58Y, N84S, S88T, P111T
VL: B9 VL with Q3K, L21I, N31T, K45E, H49Y, A56D, L83M, A93E
With B10, the OD450 amounted to 0.15 in experiment [1], 0.15 in [2] and 1.21 in experiment [3]. In addition, the binding result with biotinylated Fc domain is reported as “no binding”.

B11: 3C4 mouse-human chimeric IgG1 anti-KAAG1 monoclonal antibody (antibody, V domains shown)
VH: B9 VH with D1E, S53N, F54Y, N55D, D57H, S58N, N59D, R72Q, S88T, P111T
VL: DIVMSQSPSSMYASLGERVTITCKASQDIHNFLNWFQQKPGKSPKTLIFRANRLVDGVPSRFSGSGSGQDYSLTISSLEFEDLGIYSCLQYDEIPLTFGAGTKLELRA
notes: Mouse variable regions on human kappa and human IgG1 constant regions, expressed in 293E cells; also called chimeric 3C4
Turning to B11, in [6], the “EC50 (read off the curve)” value is approximately 0.6 µg/mL.

B12: 3C4 mouse anti-KAAG1 Fab (Fab, V domains shown)
VH: B9 VH with D1E, S53N, F54Y, N55D, D57H, S58N, N59D, R72Q, S88T, P111T
VL: DIVMSQSPSSMYASLGERVTITCKASQDIHNFLNWFQQKPGKSPKTLIFRANRLVDGVPSRFSGSGSGQDYSLTISSLEFEDLGIYSCLQYDEIPLTFGAGTKLELR
notes: Recombinant mouse Fab prepared from E. coli; also called 3C4 Fab; well C4
As for B12, the OD450 in experiment [1] was 0.25; in experiment [2], 0.25; in experiment [3], 1.93. For the same molecule, the binding result with biotinylated Fc domain is recorded as “no binding”.

These data come from US20110223107A1 (ALETHIA BIOTHERAPEUTICS, published 2011).
